Results on two substances are retold here after paper PMC4232046.

What is called Kd is the free concentration of one partner at which half of the binding sites on the other are occupied at equilibrium, for simple one-to-one binding.

The test system of series [1] is CBC (HapB/HapC/HapE core CCAAT-binding complex) (Aspergillus fumigatus). As to the kind of experiment: SPR. The following applies: SPR Biacore T200, 25 C; 10 mM phosphate pH 7.4, 2.7 mM KCl, 137 mM NaCl, 1 mM DTT, 0.005% surfactant P20, 10 ug/ml poly(dI-dC); biotin-DNA on streptavidin CM3 …. In general terms: Surface plasmon resonance follows binding to a sensor surface in real time, without labels.

Series [2] addresses CBC (HapB/HapC/HapE core CCAAT-binding complex);HapX(24-158) (Aspergillus fumigatus;Aspergillus fumigatus) (UniProt Q4WER3). As to the kind of experiment: SPR. The following applies: SPR Biacore T200, 25 C; 10 mM phosphate pH 7.4, 2.7 mM KCl, 137 mM NaCl, 1 mM DTT, 0.005% surfactant P20, 10 ug/ml poly(dI-dC); biotin-DNA on streptavidin CM3 ….
Series [3] has as its target Aspergillus fumigatus core CCAAT-binding complex (HapB(230–299), HapC(40–137), HapE(47–164)) (Aspergillus fumigatus). The series can be described thus: SPR; Biacore T200, 25°C; biotinylated 37-bp cccA promoter duplex (full motif) on streptavidin-coated CM3 chip; CBC injected, HapX(24–158) co-injected on preformed binary CBC/DNA complexes in the steady-state phase; 10 mM phosphate pH 7.4, 2.7 mM KCl, 137 mM NaCl, 1 mM DTT, 0.005% P20, 10 μg/ml poly(dI-dC); 1:1 model with mass transport term.

With “AAATCCACCAATCAACGCCTCCGTGATTGTCAGCAAT (double strand) [cccAp-369-37]”, the dissociation constant (Kd) turned out to be 0.7 nM in series [1] and 1.97 nM in series [2].
In series [3], “Aspergillus fumigatus HapX(24–158) (from UniProt Q4WER3 24-158) (domain or fragment)” came in with a KD on CBC-coated DNA (preformed CBC/DNA complex, 37-bp cccA promoter duplex) of 1.97 nM and a stoichiometry N (HapX chains per CBC) of 2.
